Laboratory results: US20240067740A1 (NOVAROCK BIOTHERAPEUTICS, published 2024)

T1: human TNFR1 (Homo sapiens, UniProt P19438 30-455)
T1 construct: Stably overexpressed on CHO-K1 cells; also called TNFRSF1A; p55
T1 sequence: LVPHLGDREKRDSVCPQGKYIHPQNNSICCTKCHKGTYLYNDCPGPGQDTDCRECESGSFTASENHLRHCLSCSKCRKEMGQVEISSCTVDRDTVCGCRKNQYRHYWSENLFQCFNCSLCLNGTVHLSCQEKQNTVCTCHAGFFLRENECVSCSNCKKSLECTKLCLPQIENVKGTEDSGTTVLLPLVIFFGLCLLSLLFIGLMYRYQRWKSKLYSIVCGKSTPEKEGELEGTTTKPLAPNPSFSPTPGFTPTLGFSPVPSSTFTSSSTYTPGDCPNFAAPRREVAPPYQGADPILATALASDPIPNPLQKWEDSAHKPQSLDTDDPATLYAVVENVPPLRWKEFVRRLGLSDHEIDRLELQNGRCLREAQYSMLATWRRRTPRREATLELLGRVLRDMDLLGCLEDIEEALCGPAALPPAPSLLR

T2: murine TNFR2 (Mus musculus, UniProt P25119 23-474)
T2 construct: Stably overexpressed on HEK293T cells; also called mouse TNFR2
T2 sequence: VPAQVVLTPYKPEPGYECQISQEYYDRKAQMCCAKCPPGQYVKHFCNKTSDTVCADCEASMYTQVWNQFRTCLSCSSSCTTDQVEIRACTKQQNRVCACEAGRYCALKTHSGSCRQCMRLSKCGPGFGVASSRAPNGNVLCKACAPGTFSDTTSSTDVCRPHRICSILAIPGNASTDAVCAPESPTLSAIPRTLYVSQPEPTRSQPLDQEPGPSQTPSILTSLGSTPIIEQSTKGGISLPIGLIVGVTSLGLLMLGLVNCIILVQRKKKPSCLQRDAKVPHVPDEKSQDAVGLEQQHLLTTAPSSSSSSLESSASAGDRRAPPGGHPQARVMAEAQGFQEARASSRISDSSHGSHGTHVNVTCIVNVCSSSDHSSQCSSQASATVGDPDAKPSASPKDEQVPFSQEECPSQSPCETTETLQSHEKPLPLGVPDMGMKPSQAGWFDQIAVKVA

T3: cynomolgus TNFR2 (Macaca fascicularis, UniProt P20333 23-461 (human entry))
T3 construct: Stably overexpressed on HEK293T cells; also called cynoTNFR2
T3 chain: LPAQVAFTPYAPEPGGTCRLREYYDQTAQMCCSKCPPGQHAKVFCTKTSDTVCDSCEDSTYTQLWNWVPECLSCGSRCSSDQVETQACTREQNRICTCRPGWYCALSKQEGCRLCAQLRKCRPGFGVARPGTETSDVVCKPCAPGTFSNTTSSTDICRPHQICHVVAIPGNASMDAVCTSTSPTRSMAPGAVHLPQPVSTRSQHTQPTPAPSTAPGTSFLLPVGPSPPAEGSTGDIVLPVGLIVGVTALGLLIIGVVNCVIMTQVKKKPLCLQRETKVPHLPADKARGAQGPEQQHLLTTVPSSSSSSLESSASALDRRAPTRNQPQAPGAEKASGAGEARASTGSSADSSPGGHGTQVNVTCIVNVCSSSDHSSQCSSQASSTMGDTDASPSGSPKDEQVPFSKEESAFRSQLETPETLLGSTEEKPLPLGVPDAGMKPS

T4: human TNFR2 (Homo sapiens, UniProt P20333 23-461)
T4 construct: also called hTNFR2; TNFRSF1B
T4 sequence: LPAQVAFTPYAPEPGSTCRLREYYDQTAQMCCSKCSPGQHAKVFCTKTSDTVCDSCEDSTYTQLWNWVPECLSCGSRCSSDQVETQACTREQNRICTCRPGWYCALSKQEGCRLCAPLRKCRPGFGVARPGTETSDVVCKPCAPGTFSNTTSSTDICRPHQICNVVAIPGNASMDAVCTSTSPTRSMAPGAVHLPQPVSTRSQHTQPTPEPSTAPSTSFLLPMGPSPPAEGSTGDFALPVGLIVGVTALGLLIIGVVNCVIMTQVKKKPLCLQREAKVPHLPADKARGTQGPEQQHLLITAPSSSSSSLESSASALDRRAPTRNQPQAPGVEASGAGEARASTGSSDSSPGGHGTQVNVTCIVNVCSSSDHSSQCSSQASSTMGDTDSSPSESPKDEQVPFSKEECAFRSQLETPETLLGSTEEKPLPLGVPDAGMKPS


Key:
human TNFR1 = target: T1, human TNFR1; assay: flow cytometry on CHO-K1 cells stably overexpressing human TNFR1
Experimental: (§1) HEK293T cells stably overexpressing human TNFR2 or CHO-K1 stably overexpressing human TNFR1 were aliquoted in FACS buffer and incubated with serial dilutions of TNFR2 antibody. […] Following an incubation, the reactions were subsequently analyzed by flow cytometry. […] The concentration-response was fitted to a four-parameter logistic non-linear regression model in the GraphPad Prism software to obtain the EC₅₀ values.

murine TNFR2 = target: T2, murine TNFR2; assay: flow cytometry on HEK293T cells stably overexpressing murine TNFR2
Experimental: (§2) HEK293T cells stably overexpressing human TNFR2, cynomolgus TNFR2, or murine TNFR2 were aliquoted in FACS buffer and incubated with serial dilutions of TNFR2 antibody for 2 hours.
(§3) The concentration-response was fitted to a four-parameter logistic non-linear regression model in the GraphPad Prism software to obtain the EC₅₀ values.

cynomolgus TNFR2 = target: T3, cynomolgus TNFR2; assay: flow cytometry on HEK293T cells stably overexpressing cynomolgus TNFR2
Experimental: as §2, §3

human TNFR2 [1] = target: T4, human TNFR2; assay: binding to cells stably overexpressing human TNFR2, serial dilutions, flow cytometry or imaging
Experimental: as §1

human TNFR2 [2] = target: T4, human TNFR2; assay: flow cytometry on HEK293T cells stably overexpressing human TNFR2, Alexa Fluor 647 secondary antibody
Experimental: as §1

human TNFR2 [3] = target: T4, human TNFR2; assay: image binding assay on adherent HEK293T cells overexpressing human TNFR2 (384-well plate)
Experimental: as §1

binding result (human TNFR1) | binding result (cynomolgus TNFR2) | EC50 (human TNFR2 [1]) [nM] | EC50 (read off the curve) (human TNFR2 [2]) [nM] | EC50 (read off the curve) (human TNFR2 [3]) [nM] | Binder | binding result (murine TNFR2)
no binding (tested: up to 10 µg/mL) | binds | 0.1 | ~0.1 |  | R2_mAb-1 (antibody, V domains shown, also called R2-1) VH: QVQLVESGGGVVQPGRSLRLSCAASGFTFSSYGMHWVRQAPGKGLEWVAVIWFDEDNKDYADSVKGRFTISRDNSKNTLYLQMSSLRAEDTAVYYCARDNDILTGYYYYYGMDVWGQGTTVTVSS VL: DIQLTQSPSFLSASVGDRVTITCRASQDISSYLAWYQQKPGKAPKLLIYAASTLQSGVPSRFSGSGSGTEFTLTISSLQPEDFATYYCQQLNSYPPTFGQGTKVEIK | no binding (tested: up to 10 (unit cut off in the text))
no binding (tested: up to 10 µg/mL) | binds | 0.14 | ~0.1 |  | R2_mAb-6 (antibody, V domains shown, also called R2-6) VH: QVQLVQSGAEVKKPGASVKVSCKASGYTFLSYGLSWVRQAPGQGLEWMGWINAYNGNTNYAQNLQDRVTMTTDTSTSTAYMELRSLRSDDMAVYYCARWDILTAYYSSDAFDIWGQGTMVTVSS VL: DIVMTQTPLSSPVTLGQPASISCRSSQSLVHSDGNTYLNWLQQRPGQPPRLLIYKVSNRFSGVPDRFSGSGAGTDFTLKISRVEAEDVGVYYCTQTTQFPITFGQGTRLEIK | no binding (tested: up to 10 (unit cut off in the text))
no binding (tested: up to 10 µg/mL) | binds | 0.35 | ~0.3 |  | R2_mAb-2 (antibody, V domains shown, also called R2-2) VH: QVQLVQSGPEVKKPGASVKVSCKASGYTFTNYGISWVRQAPGQGLEWMGWINAYNGNTNYAQKLQGRVTMTTDTSTSTAYMELRSLRSDDTAVYYCARDGGYGSGTYHNDYYYYYGMDVWGQGTTVTVSS VL: EIVLTQSPDFQSMTPEEKVTITCRASQSIGSNLHWYQQKPDQSPKLLIKFASQSISGVPSRFSGSGSGTDFTLTINSLEAEDAATYYCHQSSSLPFTFGPGTKVDIK | no binding (tested: up to 10 (unit cut off in the text))

More lines, now with the values behind:

Binder | binding result (human TNFR1) | binding result (cynomolgus TNFR2) | EC50 (human TNFR2 [1]) [nM] | EC50 (read off the curve) (human TNFR2 [2]) [nM] | EC50 (read off the curve) (human TNFR2 [3]) [nM] | binding result (murine TNFR2)
R2_mAb-5 (antibody, V domains shown, also called R2-5) VH: QVQLVQSGAEVKKPGASVTVSCKASGYTFSTYGIIWVRQAPGQGLEWMGWISAFNGNANSAQKLQDRVTMTTDTSTSTAYMELRSLRSDDTAVYYCARGEDFFDYWGQGTLVTVSS VL: DIVMTQTPLSSPVTLGQPASISCRSSQSLVHSDGNTYLSWLQQRPGQPPRLLIYKVSSRFSGVPDRFSGSGAGTDFTLKISRVEAEDVGVYYCTQSTQFPFTFGRGTKLEIK | no binding (tested: up to 10 µg/mL) | binds | 0.1 | ~0.1 | ~0.1 | no binding (tested: up to 10 (unit cut off in the text))
R2_mAb-3 (antibody, V domains shown, also called R2-3) VH: QVQLQESGPGLVKPSETLSLTCTVSGGSISSYYWSWIRQAPGKGLEWIGYIYYSGSTNYNPSLKSRVTISVDTSKNQFSLKLSSVTAADTAVYYCARDDGSSDYGMDVWGQGTTVTVSS VL: AIQLTQSPSSLSASVGDRVTITCRASQGISSALAWYQQKPGKAPKLLIYDASSLESGVPSRFTGSGTDFTLTISSLQPEDFATYYCQQFNNYMYTFGQGTKLEIK | no binding (tested: up to 10 µg/mL) |  | 0.38 | ~0.4 |  | no binding (tested: up to 10 (unit cut off in the text))
R2_mAb-4 (antibody, V domains shown, also called R2-4) VH: QVQLVQSGAEVRKPGASVKVSCKASGYTFTSYSVTWVRQAPGQGLEWMGWINAFSGNTHYAQNLQDRVTMTTDTSTSTAYMELRSLRSDDTAVYYCAREEGSGSYEDYYGMDVWGQGTTVTVSS VL: not shown | no binding (tested: up to 10 µg/mL) | binds | 0.11 | ~0.1 | ~0.2 | no binding (tested: up to 10 (unit cut off in the text))
